B1: human PTH(1-84) (protein, UniProt P01270 32-115, looked up)
Parathyroid hormone: SVSEIQLMHNLGKHLNSMERVEWLRKKLQDVHNFVALGAPLAPRDAGSQRPRKKEDNVLVESHEKSLGEADKADVNVLTKAKSQ
modifications: Parathyroid hormone

Columns and labels:
platelet count [1] = assay: Effectiveness of PTH derivative, daily administration to mouse (peripheral platelet count); assay type: in vivo; settings: C57B1/6N mice, 200 μg/kg subcutaneous once a day for six days, 24 h after final administration; FIG. 3
Method: Ten-week old male C57B1/6N mice as purchased from Japan Charles River Co., Ltd. were used in the experiment.
Drug solutions to be administered were prepared basically from human PTH(1-84) and human PTH(1-34) by the same procedure as in Example 1 to give a drug concentration of 20 μg/mL.
Eighteen mice were divided into three groups, which were administered subcutaneously with the two drug solutions and a control (citrate buffer) for six days on a once-a-day basis in a volume of 10 mL/kg. […] The administration was initiated at 10 a.m.
After 24 h of the final administration, a blood sample was withdrawn from each mouse through the orbital vein. Peripheral corpuscle counts were obtained with an automatic corpuscle counter F-800 (TOA MEDICAL ELECTRONICS CO., LTD)

platelet counts = assay: Test for single-dose administration to mouse (peripheral platelet count); assay type: in vivo; settings: C57B1/6N mice, single dose 10 μg/kg through the tail vein, 6 and 9 h after the administration; FIG. 1
Method: Nine-week old male C57B1/6N mice as purchased from Japan Charles River Co. Ltd. were used in the experiment.
Human PTH(1-84) was dissolved in a citrate buffer (pH 5; containing 0.05% of Tween 80) at final concentrations of 1, 0.2 and 0.04 ˜g/mL so as to prepare the drug solutions to be administered.
Each of the thus prepared drug solutions and a control (citrate buffer) was administered to 15 mice through the tail vein in a volume of 10 mL/kg. […] The administration was initiated at 10 a.m.
After 3, 6 and 9 hours of the administration, five mice were picked up at random from each group of animals and blood samples were withdrawn through the orbital vein. At 10 a.m. on the same day, separate blood samples were taken from untreated mice (four in number) to obtain the preadministration value. Peripheral corpuscle counts were obtained with an automatic corpuscle counter F-800 (TOA MEDICAL ELECTRONICS CO., LTD.)

platelet count [2] = assay: Test for daily administration to rabbit (platelet count); assay type: in vivo; settings: three rabbits, FIG. 4
Method: Six 12-15 week old male Japanese albino rabbits JW/CSK were used in the experiment. The animals were individually kept in aluminum rabbit bracket cages Rb-1 (350^w×500^d×350^h mm) in a vavarium in a specific pathogen-free environment under the following conditions: temperature, 24±2° C.; humidity, 50±10%; illumination, light turned on at 5:00 and turned off at 19:00; ventilation, 15 changes/hr. Each animal was supplied with 120 g of a radiation-sterilized feed for rabbits RM (purchased from Funahashi Farm) per day. The animals were also allowed to drink to tap water ad libitum from an automatic water feeder.
Human PTH(1-84) was administered in a volume of 2 mL/vial at a concentration of 200 μg/mL. A solvent was also supplied in a volume of 2 mL/vial. Both the drug and the control were stored at −135° C. until use.
PTH (200 μg/kg) was administered to the rabbits subcutaneously at the back of their neck for 13 consecutive days. The solvent was similarly administered in the same volume as the dose of a rh-PTH solution calculated from their body weight.
Blood samples (0.5 mL) were withdrawn from the rabbits through the lateral auricular vein before the administration and on days 2, 6, 9 and 13 during the administration period. […]

platelet count [3] = assay: Test for daily administration to mouse (peripheral platelet count); assay type: in vivo; settings: C57B1/6N mice, subcutaneous once a day, FIG. 2
Method: Nine-week old male C57B1/6N mice as purchased from Japan Charles River Co., Ltd. were used in the experiment.
Drug solutions to be administered were prepared basically by the same procedure as in Example 1 to give drug concentrations of 5, 20 and 80 μg/mL.
The mice under test were divided into four groups, which were administered subcutaneously with the three drug solutions and a control (citrate buffer) once a day in a volume of 10 mL/kg. […] The administration was initiated at 10 a.m.
On days 5, 7 and 9 after the start of administration, five or six mice were picked up at random from each group of animals and blood samples were withdrawn through the orbital vein. The sampling of blood was timed to occur 24 h of the final administration. Separate blood samples were taken from untreated mice (five in number) to obtain the value for normal mouse. Peripheral corpuscle counts were obtained with an automatic corpuscle counter F-800(TOA MEDICAL ELECTRONICS CO., LTD.).

[4] = test system: BFU-E (precursor cells of erythrocytes); settings: report by Meytes et al, J. Clin. Invest. Vol. 67, 1263-1269:1981; cited from earlier work
[5] = test system: CFU-GM (precursor cells of granulocytes and macrophages); settings: report by Meytes et al, J. Clin. Invest. Vol. 67, 1263-1269:1981; cited from earlier work

| Molecule | platelet increasing action compared with PTH(1-84) (platelet count [1]) | platelet counts versus control (platelet counts) | platelet count on day 13 (platelet count [2]; 200 μg/kg subcutaneous daily for 13 days, day 13) | platelet count relative to the initial value, increase from day 2 until day 6 (platelet count [2]; 200 μg/kg subcutaneous daily) | platelet count versus control, day 5 (platelet count [3]; 200 and 800 μg/kg groups only, day 5, 24 h after final administration) | platelet count versus control, day 7 (platelet count [3]; all treated groups (50, 200 and 800 μg/kg), day 7) | in vitro colony formation by BFU-E [4] | in vitro colony formation by CFU-GM [5] |
| --- | --- | --- | --- | --- | --- | --- | --- | --- |
| human PTH(1-34) (SVSEIQLMHNLGKHLNSMERVEWLRKKLQDVHNF; Parathyroid hormone; UniProt P01270 32-65, looked up, fragment) [PTH(134), partial peptide of PTH composed of 34 amino acids from the N terminus; purchased from Peptide Institute, Inc] | comparable platelet increasing action to PTH(1-84) | – | – | – | – | – | – | – |
| B1 | – | significant increase in platelet counts over the control | substantially returned to the initial level | two to four | tendency to increase | significantly higher in platelet count than the control | interfered with | interfered with |

Source: US20020058626A1, “Agents for preventing and treating thrombocytopenia” (CHUGAI SEIYAKU KABUSHIKI KAISHA, priority 1996, published 2002)
